Results taken from US20250076311A1 (Chugai, published 2025).
Blank lines part the entries; values can stand above or below the binder they belong to.

Assays:
[1] = target: T1, human FcγRIIb extracellular domain, His-tagged (human, UniProt P31994 43-217); test: SPR Biacore, KD(SG1)/KD(variant)
T1 construct: also called FcgRIIb (human); not shown: C-terminal His-tag
T1 sequence: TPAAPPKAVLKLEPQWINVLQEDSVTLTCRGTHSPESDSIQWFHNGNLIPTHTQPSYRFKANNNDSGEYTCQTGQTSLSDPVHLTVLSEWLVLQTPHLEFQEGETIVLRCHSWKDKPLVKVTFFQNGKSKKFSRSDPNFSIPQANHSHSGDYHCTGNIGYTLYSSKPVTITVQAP

[2] = target: T2, cynomolgus monkey FcγRIIIaS extracellular domain, His-tagged (cynomolgus monkey, UniProt Q8SPW2 21-206 at identity 1.00)); test: SPR Biacore, KD(SG1)/KD(variant)
T2 construct: also called cyno FcγRIIIaS; cynoFcγRIIIaS; not shown: C-terminal His-tag
T2 chain: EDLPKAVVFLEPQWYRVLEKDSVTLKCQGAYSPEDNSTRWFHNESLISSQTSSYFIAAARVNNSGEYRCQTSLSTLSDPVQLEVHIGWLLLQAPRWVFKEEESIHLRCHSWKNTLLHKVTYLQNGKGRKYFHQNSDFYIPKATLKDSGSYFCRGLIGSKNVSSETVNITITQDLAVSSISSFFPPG

[3] = target: T3, cynomolgus monkey FcγRIIa1 extracellular domain, His-tagged (cynomolgus monkey); test: SPR Biacore, KD(SG1)/KD(variant)
T3 construct: also called cyno FcγRIIa1; cynoFcgRIIa1; not shown: C-terminal His-tag
T3 chain: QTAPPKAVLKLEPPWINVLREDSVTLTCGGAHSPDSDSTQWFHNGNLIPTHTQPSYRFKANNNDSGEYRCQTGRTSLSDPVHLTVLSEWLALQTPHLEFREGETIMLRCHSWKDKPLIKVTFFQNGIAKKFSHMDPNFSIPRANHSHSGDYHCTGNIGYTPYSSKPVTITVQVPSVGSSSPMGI

[4] = target: T4, human FcγRIIaH extracellular domain, His-tagged (human, UniProt P12318 34-217); test: SPR Biacore, KD(SG1)/KD(variant)
T4 construct: also called human FcγRIIa (type H); FcgRIIaH; not shown: C-terminal His-tag
T4 sequence: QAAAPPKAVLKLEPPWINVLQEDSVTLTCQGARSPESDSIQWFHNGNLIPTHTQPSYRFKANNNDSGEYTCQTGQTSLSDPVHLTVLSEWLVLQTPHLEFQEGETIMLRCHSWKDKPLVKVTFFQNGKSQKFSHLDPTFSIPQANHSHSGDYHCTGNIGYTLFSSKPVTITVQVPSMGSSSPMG

GST-hMSTN 61-160aa = target: T5, GST-hMSTN 61-160aa (human, UniProt O14793 61-160); test: Western blot with the antibody as probe on GST-tagged 100-amino-acid fragments of the human latent myostatin propeptide expressed in E. coli BL21 (lanes 1-8), GST control (lane 9) and human latent myostatin 100 ng (lane 10)
T5 sequence: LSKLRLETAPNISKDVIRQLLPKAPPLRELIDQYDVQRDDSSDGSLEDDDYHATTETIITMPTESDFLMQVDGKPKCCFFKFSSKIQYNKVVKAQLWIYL
Description: (§1) Fragments of the N-terminal propeptide coding region of human latent myostatin were cloned into a pGEX4.1 vector so as to produce GST tagged propeptide fragments of 100 amino acid each, with 80 amino acid overlap (FIG. 22A). Protein expression was induced in transformed BL21 competent cells with Overnight Express Autoinduction System (Merck Millipore) and protein was extracted using the BUGBUSTER® protein extraction reagent (Novagen).

GST-hMSTN 81-180aa = target: T6, GST-hMSTN 81-180aa (human, UniProt A1C2U3 81-180 (Pongo pygmaeus entry)); test: as above
T6 sequence: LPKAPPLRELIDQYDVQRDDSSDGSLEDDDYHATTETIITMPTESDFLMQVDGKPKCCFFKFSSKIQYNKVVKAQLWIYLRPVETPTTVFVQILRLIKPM
Description: as §1

GST-hMSTN 41-140aa = target: T7, GST-hMSTN 41-140aa (human, UniProt O14793 41-140); test: as above
T7 sequence: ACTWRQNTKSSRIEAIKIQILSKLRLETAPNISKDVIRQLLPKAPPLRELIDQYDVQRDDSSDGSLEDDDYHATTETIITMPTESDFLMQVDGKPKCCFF
Description: as §1

GST-hMSTN 101-200aa = target: T8, GST-hMSTN 101-200aa (human, UniProt A1C2U3 101-200 (Pongo pygmaeus entry)); test: as above
T8 sequence: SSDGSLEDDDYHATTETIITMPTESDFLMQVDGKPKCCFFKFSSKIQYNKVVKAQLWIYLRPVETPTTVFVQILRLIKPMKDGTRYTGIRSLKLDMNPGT
Description: as §1

KD fold (SG1 = 1) [1]: 2.2 fold
KD fold (SG1 = 1) [2]: 0.62 fold
B1: M103205H795-MY068/M103202L889-SK1 (antibody, human IgG1, kappa, name in EU numbering)
heavy: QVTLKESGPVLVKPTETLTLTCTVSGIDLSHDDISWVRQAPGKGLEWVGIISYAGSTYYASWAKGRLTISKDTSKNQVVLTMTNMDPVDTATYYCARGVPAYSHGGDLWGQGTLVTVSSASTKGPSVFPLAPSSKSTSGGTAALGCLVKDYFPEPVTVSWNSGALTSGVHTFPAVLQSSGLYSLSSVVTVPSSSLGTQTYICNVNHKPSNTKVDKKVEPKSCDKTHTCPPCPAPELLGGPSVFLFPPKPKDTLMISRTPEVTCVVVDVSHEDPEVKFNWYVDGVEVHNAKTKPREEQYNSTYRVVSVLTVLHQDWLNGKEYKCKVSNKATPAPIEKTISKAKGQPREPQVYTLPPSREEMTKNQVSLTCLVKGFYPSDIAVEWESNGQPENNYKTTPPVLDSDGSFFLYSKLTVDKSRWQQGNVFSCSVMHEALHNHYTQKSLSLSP
light: DIVMTQSPATLSLSPGERATLSCTSSQSVYHANWLSWFQQKPGQPPKLLIYWASTLAYGVPSRFSGSGSGTDFTLTISSLQPEDAATYYCAGGYGGGRYAFGQGTKVEIKRTVAAPSVFIFPPSDEQLKSGTASVVCLLNNFYPREAKVQWKVDNALQSGNSQESVTEQDSKDSTYSLSSTLTLSKADYEKHKVYACEVTHQGLSSPVTKSFNRGEC
notes: Substitution introduced into M103205H795-SG1; EU numbering

KD fold (SG1 = 1) [3]: 1.2 fold
KD fold (SG1 = 1) [4]: 4.5 fold
B2: M103205H795-MY124/M103202L889-SK1 (antibody, human IgG1, kappa, name in EU numbering)
heavy: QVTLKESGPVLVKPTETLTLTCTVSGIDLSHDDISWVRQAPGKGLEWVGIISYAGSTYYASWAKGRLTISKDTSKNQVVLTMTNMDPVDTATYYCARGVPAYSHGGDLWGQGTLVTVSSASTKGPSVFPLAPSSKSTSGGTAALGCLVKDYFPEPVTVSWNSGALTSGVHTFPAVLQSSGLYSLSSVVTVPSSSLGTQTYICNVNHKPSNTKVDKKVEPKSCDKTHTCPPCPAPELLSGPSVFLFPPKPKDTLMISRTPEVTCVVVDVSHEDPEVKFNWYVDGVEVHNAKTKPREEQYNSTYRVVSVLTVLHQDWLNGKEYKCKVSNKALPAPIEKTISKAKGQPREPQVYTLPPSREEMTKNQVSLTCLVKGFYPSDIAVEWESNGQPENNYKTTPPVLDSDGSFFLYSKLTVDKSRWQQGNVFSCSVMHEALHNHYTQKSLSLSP
light: DIVMTQSPATLSLSPGERATLSCTSSQSVYHANWLSWFQQKPGQPPKLLIYWASTLAYGVPSRFSGSGSGTDFTLTISSLQPEDAATYYCAGGYGGGRYAFGQGTKVEIKRTVAAPSVFIFPPSDEQLKSGTASVVCLLNNFYPREAKVQWKVDNALQSGNSQESVTEQDSKDSTYSLSSTLTLSKADYEKHKVYACEVTHQGLSSPVTKSFNRGEC
notes: as for B1

binding result (GST-hMSTN 61-160aa): no binding
binding result (GST-hMSTN 81-180aa): no binding
binding result (GST-hMSTN 41-140aa): no binding
binding result (GST-hMSTN 101-200aa): no binding
B3: MST1573 (antibody, human IgG1, kappa, V domains shown)
VH: QSVEESGGRLVTPGTPLTLTCTVSGIDLSSSSMIWVRQAPGEGLKYIGFISKSGYTYYASWAKGRFTISKTSTTVDLKITSPTTEDTATYFCARGGYSGDWDYFTLWGPGTLVTVSS
VL: DIVMTQTPASVEAAVGGTVTIKCQASESIGNALAWYQQKPGQPPKLLIYGAFNLESGVPSRFRGSGSGTEYTLTISDLECDDAATYYCQGYFWSSSTIYAFWAFGGGTKVEIKR
notes: Constant regions as for MST1504
